Data as given in the DeepSol protein solubility set.

test: soluble on expression in E. coli; label from the status in PepcDB or PDB records

Sequence | soluble on expression in E. coli
TQAMEGLLHYINPAHAISLLSALNEERLKGQLCDVLLIVGDQKFRAHKNVLAASSEYFQSLFTNKENESQTVFQLDFCEPDAFDNVLNYIYSSSLFVEKSSLAAVQELGYSLGISFLTNIVSKTPQAPFPTCPNRKKVFVEDDENSSQKRSVIVCQSRNEAQGKTVSQNQPDVSHTSRPSPSIAVKANTNKPHVPKPIEPLHNLSLTEKSWPKDSSVVYAKSLEHSGSLDDPNRISLVKRNAVLPSKPLQDREAMDDKPGVSGQLPKGKALELALKRPRPPVLSVCSSSETPYLLKETNKGNGQGEDRNLLYYSKLGLVIPSSGSGSGNQSIDRSGPLVKSLLRRSLSMDSQVPVYSPSIDLKSSQGSSSVSSDAPGNVLCALSQKSSLKDCSEKTALDDRPQVLQPHRLRSFSASQSTDREGASPVTEVRIKTEPSSPLSDPSDIIRVTVGDAATTAAASSSSVTRDLSLKTEDDQKDMSRLPAKRRFQADRRLPFKKLKVNEHGSPVSEDNFEEGSSPTLLDADFPDSDLNKDEFGELEGTRPNKKFKCKHCLKIFRSTAGLHRHVNMYHNPEKPYACDICHKRFHTNFKVWTHCQTQHGIVKNPSPASSSHAVLDEKFQRKLIDIVREREIKKALIIKLRRGKPGFQGQSSSQAQQVIKRNLRSRAKGAYICTYCGKAYRFLSQFKQHIKMHPGEKPLGVNKVAKPKEHAPLASPVENKEVYQCRLCNAKLSSLLEQGSHERLCRNAAVCPYCSLRFFSPELKQEHESKCEYKKLTCLECMRTFKSSFSIWRHQVEVHNQNNMAPTENFSLPVLDHNGDVTGSSRPQSQPEPNKVNHIVTTKDDNVFSDSSEQVNFDSEDSSCLPEDLSLSKQLKIQVKEEPVEEAEEEAPEASTAPKEAGPSKEASLWPCEKCGKMFTVHKQLERHQELLCSVKPFICHVCNKAFRTNFRLWSHFQSHMSQASEESAHKESEVCPVPTNSPSPPPLPPPPPLPKIQPLEPDSPTGLSENPTPATEKLFVPQESDTLFYHAPPLSAITFKRQFMCKLCHRTFKTAFSLWSHEQTHN | soluble
TQDWNWNIGYNISYNKNKITKMTFNDDPNYAGVIHGGIDGGTGYNALIHRVGEAFNSFYVFEQIYGPDGKPIEGAYVDQNGDNQINDADLICFKKAAPDVFMGLTSQLSYKNWDFSFALRGSFGNYVYNNVQSNREAYEGANMYDQTGFLKNRLTSARSTDFKNAQYRSSYYVQNASFVRMDNISLGYTFNKLFNDKQSARVYATVQNPFVITKYKGLDPEISGEGIDNNIYPRPRVFMIGLNLNF | not soluble
TQKSLSNFLLSMQEAFSLGEEDRLLAVTTVAFDISALELYLPLISGAQIVIAKKETIREPQALAQMIENFDINIMQATPTLWHALVTSEPEKLRGLRVLVGGEALPSGLLQELQDLHCSVTNLYGPTETTIWSAAAFLEEGLKGVPPIGKP | not soluble
TSGTLYLVGTPIGNLDDMTFRAIATLKNVDLIAAEDTRHTGKLLKHFQIATPQISYHDHNRHQRQAQLLEKLRSGLNIALVSDAGLPGISDPGFELVASAIDTEITVVPIPGV | not soluble
TSPLYTGAVPRANRIVQQLVEAGADLANIRTMFRNMLRGEEMILSRAEQNVFLQHFPDMLPCGIDRNSELAIALREALRRADSQQAARAPARTPPRSSVRTPERSPAPRTATESSSGSNQRSLLGRFAGLMTSNQRRPSSASNASTSQRPVDRNPPRINLMPTGANRVAMRNRGNNEADAALQALAQNGINMEDLRAALEAYIVWLRPIPLDIANALEGVGITPRFDNPEEAKVDNPLMNLSSALKRRLDA | not soluble
TSSDTQNNKTLAAMKNFAEQYAKRTDTYFCSDLSVTAVVIEGLARHKEELGSPLCPCRHYEDKEAEVKNTFWNCPCVPMRERKECHCMLFLTPDNDFAGDAQDIPMETLEEVKASMA | soluble
TVVEEDTGGNTDLEAVRRTLLAQFEQYAKLNKKIPAEIIGSINGIAENSRLTDTVAAHLQLKLAQRQQILEIPEIGKRMEFLLAQLESELDIMQAEKRIRGRVKRQMEKSQREYYLNEQIKAIHKELGEEDENGELDALEADIKKAGMTKEAEEKCLSELKKLKMMPPMSAESTVVRNYIDTLLELPWKKKSRVSKDIAKAGLVLDADHYGLEKVKERILEYLAVQKRMDKLKGPILCLVGPPGVGKTSLGESIAKATGRKYVRMALGGVRDESEIRGHRRTYIGSMPGKILQNMAKAGVKNPLFLLDEIDKLGNDFRGDPASALLEVLDPEQNNKFADHYAEVDYDLSDVMFIATSNSLNIPTPLLDRMEIIRL | not soluble
VAKMRFIDIGANLLDEMYTGQYNDKPYHPPDLSAVLERAWAAGLEKLMITAGSLKEARAALELAKTDERLYCTVGCHPTRCKEFEDHPGGPEAYLQELLEVLKEGQALGKVVAVGECGLVATDYERLHFCDADTQKKYFEAQFRLAKESGLPMFLHLRAAADDFLDITGRHLGDFPRGGVVHSFDGTAEEAARVLAVPQLAIGINGCSLKTDDNLAVVGGLPLERIMLETDCPWCEIRPTHAGRKHVSAEALAGVTGAKDRKKFMPGCQVKSRNEPANIRQVLEVVAGVKGRTDLEAVADVIFGNTERMFFPTA | not soluble
VALSPLPLPEGLELTGIEGTLWQGQAAQVRWQGMSLGDLNWDLHLSALLLGQLEADIRFGRGSSTQLRGKGVVGVGLSGPYADDFLLSLPAAQAITWLPLPVPLMAQGQLEMAVKQYRFGEPYCQQAEGSLAWSAAQLESPIGALQLGTVVSDFTCQESVVTLKGGQKTAQVSSEFNLSLQPDNRYQAQAWFKPEAEFPESLKEQLSWLPQPDGQGRYPFNQQGQL | not soluble
VAYLTEVVVNEVVEAHEVPEVQHALNINSSESLIHIVRTRRLNQHVKIVDEDYFLKSIVSDIGNDVASDSIYDYLEKVLNLNISYSSKSITFEPFDEQAYQLFGDVSVAYSATVRSIVYLENTMPFQYNISKHLA | not soluble
VEKVFVVGHKNLDMDALGATVGMAHFASQIVRKSYAVYDDMAMNTDIERAVERLKEDGQSPLITLSEAEELVNQHSLLIMVDHSKINLTLSQDFYDRFNEVIVVDHHRRDDDFPENAVLTFIESGASSACELVTELLQFQGAPERLSKIQASILMAGIMLDTKNFSTRVTSRTFDVASYLRSLGSDSGEIQMISATDF | not soluble
VGLGNLKTYGGLRQGSQSYNIDRLKKYLYYGDGTYDDLVNTLLNEAMNDQLESFASFYRGKKLYELPRGWPEIPAKRQR | not soluble
VGPGMPFANRVVNRFGQVGLVPCSIGGTKLSQWQKGEFLYEETVKRAKAAMASGGGGSYRAVLWYQGESDTVDMVDASVYKKRLVKFFSDLRNDLQHPNLPIIQVRCLNT | soluble
VHFHPFGNVNFYEMDWSLKGDLWAHDPVIAKEGSRWYVFHTGSGIQIKTSEDGVHWENMGWVFPSLPDWYKQYVPEKDEDHLWAPDICFYNGIYYLYYSVSTFGKNTSVIGLATNQTLDPRDPDYEWKDMGPVIHSTASDNYNAIAPNVVFDQEGQPWLSFGSFWSGIQLIQLDTETMKPAAQAELLTIASRGEEPNAIEAPFIVCRNGYYYLFVSFDFCCRGIESTYKIAVGRSKDITGPYVDKNGVSMMQGGGTILDEGNDRWIGPGHCAVYFSGVSAILVNHAYDALKNGEPTLQIRPLYWDDEGWPYLSV | soluble
VIDSMTSTDLLPEEPKWVPLSSESIQQYVDEGKVVFVDVTADWCVTCKANKIGVLLQEPVYSELNSANVVPMQGDWTVPSEKITSYLQEHGRFGVPFNVVYGPSAPNGIELPVILNEKVVMDAIKKAGNK | soluble
VINARLGKKDEINVCKLKISAWDEEEAVCIMSISEERMFILKMLEEGKITSEEAARLLEAIDPDKGTADSGSGFKAQQRKTNFADEVSKVRDKLNEWKKEFKKNYNQKDFERAVDEFSSKVEKLGKNLAYTTIGVADKLVDFISSFVETNSFNVFGKYKATNRVFEVPDVNEDMELNIEAINGHILVKKHMENKVIIRTTVKSPADNADEILDFSREENKVTLKCNKIGNISVSHEIFLPSVKVKNISLVTKNGKVYVEDSISENFEAVTSNSNVDLMGVNGDKINVSNKNGRINFGYIIGKDINIDAVNSVIEIRQIKTTNINASTRNGRIFIENVHNHNDDPNINMNLKTSSADIKVNMNDMEKRGYKIKAQTTHAEINLLIPEMTYRNISKQMSSNFVEADSDGYDDYINKVNIVAETTNGNIEIVK | not soluble
VKNILLLDSEGKRVAVKYYSDDWPTNAAKLSFEKYVFSKTSKTNARTEAEITLLDSNIIVYKFAQDLHFFVTGGENENELILASVLQGFFDAVALLLRSNVEKMEALENLDLIFLCLDEMVDQGVVL | not soluble
VKTILFFILIFNSQYMSKRIGVAVVGLGSIGKTHVKALKDLEKETEFVKLVAVVDQIKAIAEKIGSEYGTPYYTTIDEVLRNSEVDVISIATPSYLHAPQAILAIEYGKHVIVEKPMATTLAGAREMVSRAERNEVKLGVIFQERYAPDIRRLKNDILKELGRIYLIESELKWYRDMKGYYKRDEIARSWRGMWNTEGGGVMTNQGIHTIDLMIWLNGEVEEVSGFVDNLTHDGIEVEDTAVAIMRYKNGALGTISQTVSMKPTTYQYRKIRVNGSNGFVEITDGSLSTVAIEGKIEESKSSVEYKKETIAQPGNLHKELLRDFLRALSEDNDFPINGKEGMKSLEVIKAVYLSSVNRQVVKLPLDVRIVV | soluble
VLQLAEQIDVVIFDLNGTLTTGVPVVKEYAVLNDADLSSEHFLSICNVLEGQSKHPFGKAIQSFTQGINKQKFNIANLDHSNHSGISAEINGIQYTIGSKTLMQEIGISTSSLENQMNLVAGDSLVFLARNKQLLGYLVITDPLRKDAKQTVDALIKMGKEVHLCTGADEKTAYRYAQALGIKKVHANCVATTINTEDRSKPVYIKSLQNQGLKVAMIGDAANDANALAASDFGIAVLSQDSDEITQQHASAIIQSGTILPIANAFAISKQTVNNINQNLLISLGYNLTTV | not soluble
VNAYDVLKRHHTVLKGLGRKVGEAPVNSEERHVLFDEMLIELDIHFRIEDDLYYPALSAAGKPITGTHAEHRQVVDQLATLLRTPQRAPGYEEEWNVFRTVLEAHADVEERDMIPAPTPVHITDAELEELGDKMAARIEQLRGSPLYTLRTKGKADLLKAI | not soluble
VPDKSPDLLFELLNDFFTQLLSAGESESMDNLIELDLTFSQVRMLFALVQHGEPLPINEVAERLRLSVAAAGRNVDQLVKLGLVVRREDERDRRVKRVSLSEAGHKVATQHIECKRDQLRRFAWRVPEIERTRLIEALQPILAGESLRELNQEILG | not soluble
VPKLVDHDERRRSITAAAWRLIAARGIEAANMRDIATEAGYTNGALSHYFAGKDEILRTSYEHISEATDRRIAEALGDATGLDALRILCREVMPINEEQLLEARIAASLWPRAMYDEQMAATNRRTMDNWREQMAIFLEQAREEGSVGDIDVTIVVEQLLNMMMGMQILGVLTPGETSSERQLEMLEQFVAAL | soluble
VQLQQSGTELMKPGRSLKISCKTTGYIFSNYWIEWVKQRPGHGLEWIGKILPGGGSNTYNDKFKGKATFTADTSSNIAYMQLSSLTSEDSAVYYCARGEDYYAYWYVLDYWGQGTTVTVSSGGGGSDIELTQSPLSLPVSLGDQASISCRSSQSLVHSNGNTSLHWYLKKPGQSPKLLIYKVSTRFSGVPDRFSGSGSGTDFTLKISRVEAEDLGVYFCSQSTHVPFTFGSGTKLELK | soluble
VQLVRLLEEKIKSLQIEIENLRKELNYYKAEMEKMLSPPLIEAVVLDVLPDGRVLVRSSSGPNLVVNIASHIDQKLIKPGISVALNQRGSTILEVLPQKEDPIVKTMEIIERPN | not soluble
